# “And” between values parts separate entries of the source, which are not always exact repeats. Equal values may be shown once. No end group written: not given here.
# B1: ATTO 488-labeled integrin β3 cytoplasmic tail (488–β3-CT) (peptide, UniProt O54890 741-787, looked up)
# peptide: {ATTO 488}-KLLITIHDRKEFAKFEEERARAKWDTANNPLYKEATSTFTNITYRGT
# notes: integrin β3 cytoplasmic tail (β3-CT); source: synthetic peptide (MPIB Core Facility)
# Legend:
# Settings in all cases: both partners purified
# [1] = target: T1, THD1 K402E (UniProt P26039 1-405, K402E); assay: MST; apparent; THD1 or THD1 mutants titrated to 488–β3-CT in the presence of 30-40 µM KIND2; MST buffer
# T1 construct: talin-1 (TLN1) head domain, residues 1-405, K402E; source: E. coli (DE3) Rosetta 2, purified (IMAC, SEC); not shown: His10-SUMO, N-terminal, cleaved
# [2] = target: T2, KIND2 Y13A (UniProt Q8CIB5 1-680, Y13A); assay: MST; unlabelled protein titrated to 50-200 nM ATTO 488-labelled β-CT peptide, no third protein; 20 mM Tris pH 7.5, 200 mM NaCl, 1 mM TCEP, 0.05% Tween-20; Kd of individual titrations (in S0002 mean and sd, n = 2)
# T2 construct: kindlin-2 (KIND2), recombinant, Y13A; source: E. coli Rosetta, purified (IMAC, SEC); not shown: His10-SUMO, N-terminal, cleaved
# T2 sequence (looked up): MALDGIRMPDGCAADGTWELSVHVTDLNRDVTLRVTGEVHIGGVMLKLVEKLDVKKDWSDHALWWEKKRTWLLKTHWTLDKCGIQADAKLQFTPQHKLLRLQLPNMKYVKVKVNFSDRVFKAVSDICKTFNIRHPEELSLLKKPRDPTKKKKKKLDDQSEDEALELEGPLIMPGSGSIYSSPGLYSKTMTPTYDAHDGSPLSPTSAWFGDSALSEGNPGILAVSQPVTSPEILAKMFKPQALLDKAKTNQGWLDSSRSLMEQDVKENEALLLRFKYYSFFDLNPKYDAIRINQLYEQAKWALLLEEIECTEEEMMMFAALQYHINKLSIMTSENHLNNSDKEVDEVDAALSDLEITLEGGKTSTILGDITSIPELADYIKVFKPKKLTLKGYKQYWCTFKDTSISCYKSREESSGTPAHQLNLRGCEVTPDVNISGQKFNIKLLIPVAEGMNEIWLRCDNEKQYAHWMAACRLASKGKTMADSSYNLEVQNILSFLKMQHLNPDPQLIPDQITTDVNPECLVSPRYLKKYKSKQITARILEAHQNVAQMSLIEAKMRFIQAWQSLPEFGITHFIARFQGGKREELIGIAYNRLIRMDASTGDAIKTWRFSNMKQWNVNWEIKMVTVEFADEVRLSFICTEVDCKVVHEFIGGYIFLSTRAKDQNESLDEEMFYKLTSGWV
# [3] = target: T1, THD1 K402E; assay: as above
# [4] = target: T3, THD1 K401A (UniProt P26039 1-405, K401A); assay: as above
# T3 construct: talin-1 (TLN1) head domain, residues 1-405, K401A; source: E. coli (DE3) Rosetta 2, purified (IMAC, SEC); not shown: His10-SUMO, N-terminal, cleaved
# [5] = target: T4, THD1 I396A (UniProt P26039 1-405, I396A); assay: as above
# T4 construct: talin-1 (TLN1) head domain, residues 1-405, I396A; source: E. coli (DE3) Rosetta 2, purified (IMAC, SEC); not shown: His10-SUMO, N-terminal, cleaved
# [6] = target: T5, THD1 Y395A (UniProt P26039 1-405, Y395A); assay: MST; apparent; THD1 or THD1 mutants titrated to 488–β3-CT in the presence of 30-40 µM KIND2; MST buffer
# T5 construct: talin-1 (TLN1) head domain, residues 1-405, Y395A; source: E. coli (DE3) Rosetta 2, purified (IMAC, SEC); not shown: His10-SUMO, N-terminal, cleaved
# [7] = target: T6, THD1 I399A (UniProt P26039 1-405, I399A); assay: as above
# T6 construct: talin-1 (TLN1) head domain, residues 1-405, I399A; source: E. coli (DE3) Rosetta 2, purified (IMAC, SEC); not shown: His10-SUMO, N-terminal, cleaved
# [8] = target: T4, THD1 I396A; assay: as above
# [9] = target: T7, THD1 K402A (UniProt P26039 1-405, K402A); assay: as above
# T7 construct: talin-1 (TLN1) head domain, residues 1-405, K402A; source: E. coli (DE3) Rosetta 2, purified (IMAC, SEC); not shown: His10-SUMO, N-terminal, cleaved
# [10] = target: T8, THD1 K403E (UniProt P26039 1-405, K403E); assay: as above
# T8 construct: talin-1 (TLN1) head domain, residues 1-405, K403E; source: E. coli (DE3) Rosetta 2, purified (IMAC, SEC); not shown: His10-SUMO, N-terminal, cleaved
# [11] = target: T9, THD1 KKAA (UniProt P26039 1-405, KKAA (KK402/403)); assay: as above
# T9 construct: the sheet prints only 'KKAA'; source: E. coli (DE3) Rosetta 2, purified (IMAC, SEC); not shown: His10-SUMO, N-terminal, cleaved
# T9 sequence (P26039 other isoform, or with tags, fused parts or gaps KKAA (KK402/403) | KKAA (KK402/403)): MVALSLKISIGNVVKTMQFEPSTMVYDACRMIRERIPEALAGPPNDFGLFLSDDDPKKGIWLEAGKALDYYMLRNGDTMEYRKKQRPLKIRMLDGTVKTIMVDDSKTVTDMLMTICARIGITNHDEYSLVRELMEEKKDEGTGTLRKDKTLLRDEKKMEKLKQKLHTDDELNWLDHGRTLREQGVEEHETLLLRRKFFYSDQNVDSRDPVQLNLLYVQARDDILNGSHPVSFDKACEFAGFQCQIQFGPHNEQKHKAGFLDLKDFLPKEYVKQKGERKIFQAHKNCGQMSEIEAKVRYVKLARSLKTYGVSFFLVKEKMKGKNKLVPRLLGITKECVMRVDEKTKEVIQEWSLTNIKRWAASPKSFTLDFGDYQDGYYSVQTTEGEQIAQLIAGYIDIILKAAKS
# T1 sequence (P26039 1-405 K402E): as the sequence (P26039 other isoform, or with tags, fused parts or gaps KKAA (KK402/403) | KKAA (KK402/403)) above, with A402E, A403K counted along it
# T4 sequence (P26039 1-405 I396A): as the sequence (P26039 other isoform, or with tags, fused parts or gaps KKAA (KK402/403) | KKAA (KK402/403)) above, with I396A, A402K, A403K counted along it
# T5 sequence (P26039 1-405 Y395A): as the sequence (P26039 other isoform, or with tags, fused parts or gaps KKAA (KK402/403) | KKAA (KK402/403)) above, with Y395A, A402K, A403K counted along it
# T8 sequence (P26039 1-405 K403E): as the sequence (P26039 other isoform, or with tags, fused parts or gaps KKAA (KK402/403) | KKAA (KK402/403)) above, with A402K, A403E counted along it
# T7 sequence (P26039 1-405 K402A): as the sequence (P26039 other isoform, or with tags, fused parts or gaps KKAA (KK402/403) | KKAA (KK402/403)) above, with A403K counted along it
# T3 sequence (P26039 1-405 K401A): as the sequence (P26039 other isoform, or with tags, fused parts or gaps KKAA (KK402/403) | KKAA (KK402/403)) above, with K401A, A402K, A403K counted along it
# T6 sequence (P26039 1-405 I399A): as the sequence (P26039 other isoform, or with tags, fused parts or gaps KKAA (KK402/403) | KKAA (KK402/403)) above, with I399A, A402K, A403K counted along it
binder,measurement,setting,value
B1,Kd,[1],54.3 µM and 67.7 µM and 70.3 µM
same,Kd,[2],9.85 µM and 9.2 µM and 9.18 µM and 7.89 µM
same,Kd,[3],37.8 µM and 35.5 µM and 32.5 µM
same,Kd,[4],82.5 µM
same,Kd,[5],579 µM
same,Kd,[6],42 µM
same,Kd,[7],91 µM
same,Kd,[8],551 µM
same,Kd,[9],117 µM
same,Kd,[10],116 µM
same,Kd,[11],88.3 µM
